According to patent publication US12269859B2, “Synthetic immune receptors and methods of use thereof” (Angeles Therapeutics, Inc., priority 2016, dated 2025):

Test system: target antigen-expressing cell line
Assay: Jurkat NFAT-GFP assay, coculture with target cell lines expressing the respective target antigen (summary Table 10A)
Type: cell-based, human
Set-up: key: The signs +/−, +, 2+ etc. after the name of the cell lines indicate the relative degree of positivity on the Jurkat-NFAT-GFP assay as measured by the % GFP positive cells; +: relative degree of positivity on the Jurkat-NFAT-GFP assay as measured by the % GFP positive cells; 2+: relative degree of positivity on the Jurkat-NFAT-GFP assay as measured by the % GFP positive cells
Details: relative % GFP positive cells; for NFAT-GFP ASSAY Positive Cell lines: NALM6: SIR-expressing Jurkat-NFAT-GFP cells cocultured with NALM6; for NFAT-GFP ASSAY Positive Cell lines: RAJI: SIR-expressing Jurkat-NFAT-GFP cells cocultured with RAJI
Summary of the method: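 Read-out: % GFP+ cells by FACS. SIR-transduced, puromycin-selected Jurkat NFAT-GFP (IL-2 promoter reporter) cocultured ~4–18 h with target line, E:T ~1:2; parental cells as control; graded +/−, +, 2+ relative to parental.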

| Molecule | NFAT-GFP ASSAY Positive Cell lines: U266 (SIR-expressing Jurkat-NFAT-GFP cells cocultured with U266) | NFAT-GFP ASSAY Positive Cell lines: NALM6 | NFAT-GFP ASSAY Positive Cell lines: RAJI |
| --- | --- | --- | --- |
| 101416-A05 (protein, Synthetic Immune Receptor (SIR)) MALPVTALLLPLALLLHAARPQSVLTQPPSVSGAPGQRVTISCTGSSSNIGAGFDVHWYQQLPGTAPKLLIYGNSNRPSGVPDRFSGSKSGTSASLAITGLQAEDEADYYCQSYDSSLSGYVFGTGTKVTVLGLEEQKLISEEDLGSGEDLKNVFPPEVAVFEPSKAEIAHTQKATLVCLATGFYPDHVELSWWVNGKEVHSGVCTDPQPLKEQPALNDSRYCLSSRLRVSATFWQNPRNHFRCQVQFYGLSENDEWTQDRAKPVTQIVSAEAWGRADCGITSASYHQGVLSATILYEILLGKATLYAVLVSALVLMAMVKRKDSRGRAKRSGSGATNFSLLKQAGDVEENPGPTSMDWIWRILFLVGAATGAHSFEQVQLVQSGAEVKKPGASVKVSCKASGYTFTDYYMHWVRQAPGQRLEWMGWINPNSGGTNYAQKFQDRITVTRDTSSNTGYMELTRLRSDDTAVYYCARSPYSGVLDKWGQGTLVTVSSTREQKLISEEDLGSGIQNPDPAVYQLRDSKSSDKSVCLFTDFDSQTNVSQSKDSDVYITDKCVLDMRSMDFKSNSAVAWSNKSDFACANAFNNSIIPEDTFFPSSDVPCDVKLVEKSFETDTNLNFQNLSVIGFRILLLKVAGFNLLMTLRLWSSRAKRSGSGVKQTLNFDLLKLAGDVESNPGPSRGHMTEYKPTVRLATRDDVPRAVRTLAAAFADYPATRHTVDPDRHIERVTELQELFLTRVGLDIGKVWVADDGAAVAVWTTPESVEAGAVFAEIGPRMAELSGSRLAAQQQMEGLLAPHRPKEPAWFLATVGVSPDHQGKGLGSAVVLPGVEAAERAGVPAFLETSAPRNLPFYERLGFTVTADVEVPEGPRTWCMTRKPGA | U266 (+) | – | – |
| 110217-B04 (protein) MALPVTALLLPLALLLHAARPDVVMTQSPSSLSASVGDRVTITCRASQDISKYLNWYQQKPGKAPKLLIYHTSRLHSGVPSRFSGSGSGTDFTLTISSLQPEDFATYYCQQGNTLPYTFGGGTKVEIKLEDLKNVFPPEVAVFEPSEAEISHTQKATLVCLATGFYPDHVELSWWVNGKEVHSGVSTCPQPLKEQPALNDSRYCLSSRLRVSATFWQNPRNHFRCQVQFYGLSENDEWTQDRAKPVTQIVSAEAWGRADCGFTSESYQQGVLSATILYEILLGKATLYAVLVSALVLMAMVKRKDSRGRAKRSGSGATNFSLLKQAGDVEENPGPTSMDWIWRILFLVGAATGAHSFEQVQLQESGPGLVKPSQTLSLTCTVSGVSLPDYGVSWIRQPPGKGLEWIGVIWGSETTYYNSALKSRVLISVDTSKNQVSLKLSSVTAADTAVYYCARHYYYGGSYAMDYWGQGTTVTVSSTRIQNPDPAVYQLRDSKSSDKSVCLFTDFDSQTNVSQSKDSDVYICDKTVLDMRSMDFKSNSAVAWSNKSDFACANAFNNSIIPEDTFFPSPESSCDVKLVEKSFETDTNLNFQNLSVIGFRILLLKVAGFNLLMTLRLWSS | – | (+/−) | RAJI (+/−), NALM6 |
| 110217-D01 (protein) MALPVTALLLPLALLLHAARPDVVMTQSPSSLSASVGDRVTITCRASQDISKYLNWYQQKPGKAPKLLIYHTSRLHSGVPSRFSGSGSGTDFTLTISSLQPEDFATYYCQQGNTLPYTFGGGTKVEIKLEDLKNVFPPEVAVFEPCEAEISHTQKATLVCLATGFYPDHVELSWWVNGKEVHSGVSTDPQPLKEQPALNDSRYCLSSRLRVSATFWQNPRNHFRCQVQFYGLSENDEWTQDRAKPVTQIVSAEAWGRADCGFTSESYQQGVLSATILYEILLGKATLYAVLVSALVLMAMVKRKDSRGRAKRSGSGATNFSLLKQAGDVEENPGPTSMDWIWRILFLVGAATGAHSFEQVQLQESGPGLVKPSQTLSLTCTVSGVSLPDYGVSWIRQPPGKGLEWIGVIWGSETTYYNSALKSRVLISVDTSKNQVSLKLSSVTAADTAVYYCARHYYYGGSYAMDYWGQGTTVTVSSTRIQNPDPAVCQLRDSKSSDKSVCLFTDFDSQTNVSQSKDSDVYITDKTVLDMRSMDFKSNSAVAWSNKSDFACANAFNNSIIPEDTFFPSPESSCDVKLVEKSFETDTNLNFQNLSVIGFRILLLKVAGFNLLMTLRLWSS | – | (+/−) | RAJI (+/−), NALM6 |
| 110217-C03 (protein) MALPVTALLLPLALLLHAARPDVVMTQSPSSLSASVGDRVTITCRASQDISKYLNWYQQKPGKAPKLLIYHTSRLHSGVPSRFSGSGSGTDFTLTISSLQPEDFATYYCQQGNTLPYTFGGGTKVEIKLEDLKNVFPPEVAVFEPSEAEISHTQKATLVCLATGFYPDHVELSWWVNGKEVHSGVSTDPQPLKEQPALNDSRYCLCSRLRVSATFWQNPRNHFRCQVQFYGLSENDEWTQDRAKPVTQIVSAEAWGRADCGFTSESYQQGVLSATILYEILLGKATLYAVLVSALVLMAMVKRKDSRGRAKRSGSGATNFSLLKQAGDVEENPGPTSMDWIWRILFLVGAATGAHSFEQVQLQESGPGLVKPSQTLSLTCTVSGVSLPDYGVSWIRQPPGKGLEWIGVIWGSETTYYNSALKSRVLISVDTSKNQVSLKLSSVTAADTAVYYCARHYYYGGSYAMDYWGQGTTVTVSSTRIQNPDPAVYQLRDSKSSDKSVCLFTDFDSQTNVSQSKDSDVYICDKTVLDMRSMDFKSNSAVAWSNKSDFACANAFNNSIIPEDTFFPSPESSCDVKLVEKSFETDTNLNFQNLSVIGFRILLLKVAGFNLLMTLRLWSS | – | (+/−) | RAJI (+/−), NALM6 |
| 092517-F01 (protein) MALPVTALLLPLALLLHAARPLEGKPIPNPLLGLDSTGSGEDLKNVFPPEVAVFEPSKAEIAHTQKATLVCLATGFYPDHVELSWWVNGKEVHSGVCTDPQPLKEQPALNDSRYCLSSRLRVSATFWQNPRNHFRCQVQFYGLSENDEWTQDRAKPVTQIVSAEAWGRADCGITSASYHQGVLSATILYEILLGKATLYAVLVSALVLMAMVKRKDSRGRAKRSGSGATNFSLLKQAGDVEENPGPTSMALPVTALLLPLALLLHAARPDVVMTQSPSSLSASVGDRVTITCRASQDISKYLNWYQQKPGKAPKLLIYHTSRLHSGVPSRFSGSGSGTDFTLTISSLQPEDFATYYCQQGNTLPYTFGGGTKVEIKGGGGSGGGGSGGGGSQVQLQESGPGLVKPSQTLSLTCTVSGVSLPDYGVSWIRQPPGKGLEWIGVIWGSETTYYNSALKSRVLISVDTSKNQVSLKLSSVTAADTAVYYCARHYYYGGSYAMDYWGQGTTVTVSSTREQKLISEEDGSGIQNPDPAVYQLRDSKSSDKSVCLFTDFDSQTNVSQSKDSDVYITDKCVLDMRSMDFKSNSAVAWSNKSDFACANAFNNSIIPEDTFFPSSDVPCDVKLVEKSFETDTNLNFQNLSVIGFRILLLKVAGFNLLMTLRLWSSRAKRSGSGVKQTLNFDLLKLAGDVESNPGPSRGHMTEYKPTVRLATRDDVPRAVRTLAAAFADYPATRHTVDPDRHIERVTELQELFLTRVGLDIGKVWVADDGAAVAVWTTPESVEAGAVFAEIGPRMAELSGSRLAAQQQMEGLLAPHRPKEPAWFLATVGVSPDHQGKGLGSAVVLPGVEAAERAGVPAFLETSAPRNLPFYERLGFTVTADVEVPEGPRTWCMTRKPGA | – | RAJI (+), NALM6 (+) | RAJI (+), NALM6 (+) |
| 012417-K04 (protein) MALPVTALLLPLALLLHAARPLEGKPIPNPLLGLDSTGSGEDLKNVFPPEVAVFEPSKAEIAHTQKATLVCLATGFYPDHVELSWWVNGKEVHSGVCTDPQPLKEQPALNDSRYCLSSRLRVSATFWQNPRNHFRCQVQFYGLSENDEWTQDRAKPVTQIVSAEAWGRADCGITSASYHQGVLSATILYEILLGKATLYAVLVSALVLMAMVKRKDSRGRAKRSGSGATNFSLLKQAGDVEENPGPTSMALPVTALLLPLALLLHAARPQIVLSQSPAILSASPGEKVTMTCRASSSVSYMHWYQQKPGSSPKPWIYATSNLASGVPARFSGSGSGTSYSFTISRVEAEDAATYYCQQWTFNPPTFGGGTRLEIKRTVAAGGGGSGGGGSGGGGSQAYLQQSGAELVRPGASVKMSCKASGYTFTSYNMHWVKQTPRQGLEWIGGIYPGNGDTSYNQKFKGKATLTVGKSSSTAYMQLSSLTSEDSAVYFCARYDYNYAMDYWGQGTSVTVSSASTREQKLISEEDGSGIQNPDPAVYQLRDSKSSDKSVCLFTDFDSQTNVSQSKDSDVYITDKCVLDMRSMDFKSNSAVAWSNKSDFACANAFNNSIIPEDTFFPSSDVPCDVKLVEKSFETDTNLNFQNLSVIGFRILLLKVAGFNLLMTLRLWSSRAKRSGSGVKQTLNFDLLKLAGDVESNPGPSRGHMTEYKPTVRLATRDDVPRAVRTLAAAFADYPATRHTVDPDRHIERVTELQELFLTRVGLDIGKVWVADDGAAVAVWTTPESVEAGAVFAEIGPRMAELSGSRLAAQQQMEGLLAPHRPKEPAWFLATVGVSPDHQGKGLGSAVVLPGVEAAERAGVPAFLETSAPRNLPFYERLGFTVTADVEVPEGPRTWCMTRKPGA | – | – | RAJI (+) |
| 012417-J04 (protein) MALPVTALLLPLALLLHAARPLEGKPIPNPLLGLDSTGSGEDLKNVFPPEVAVFEPSKAEIAHTQKATLVCLATGFYPDHVELSWWVNGKEVHSGVCTDPQPLKEQPALNDSRYCLSSRLRVSATFWQNPRNHFRCQVQFYGLSENDEWTQDRAKPVTQIVSAEAWGRADCGITSASYHQGVLSATILYEILLGKATLYAVLVSALVLMAMVKRKDSRGRAKRSGSGATNFSLLKQAGDVEENPGPTSMALPVTALLLPLALLLHAARPSTVMTQSPDSLAVSLGERATINCKSSQSNSNDVAWYQQKPGQSPKVLIYFASNRYSGVPDRFSGSGYGTDFTLTISSLQAEDVAVYFCQQDYSSPLTFGAGTKLELKRADAGGGGSGGGGSGGGGSQIQLVQSGSELKKPGASVKVSCKASGYTFTNFGVNWVRQAPGKGLEWMGWINTYTGEPSYAQGFTGRFVFSLDASVSTAYLQISSLKAEDTATYFCTRRTNYYGTSYYYAMDYWGQGTTVTVSSAKTTTREQKLISEEDGSGIQNPDPAVYQLRDSKSSDKSVCLFTDFDSQTNVSQSKDSDVYITDKCVLDMRSMDFKSNSAVAWSNKSDFACANAFNNSIIPEDTFFPSSDVPCDVKLVEKSFETDTNLNFQNLSVIGFRILLLKVAGFNLLMTLRLWSSRAKRSGSGVKQTLNFDLLKLAGDVESNPGPSRGHMTEYKPTVRLATRDDVPRAVRTLAAAFADYPATRHTVDPDRHIERVTELQELFLTRVGLDIGKVWVADDGAAVAVWTTPESVEAGAVFAEIGPRMAELSGSRLAAQQQMEGLLAPHRPKEPAWFLATVGVSPDHQGKGLGSAVVLPGVEAAERAGVPAFLETSAPRNLPFYERLGFTVTADVEVPEGPRTWCMTRKPGA | – | – | RAJI (+) |
